Reference: patent US20160368965A1 (IMMATICS BIOTECHNOLOGIES, published 2016)

B1: GLGDFIFYSV (SEQ ID NO: 86) (peptide)
peptide: GLGDFIFYSV
B2: GLLPALVAL (SEQ ID NO: 87) (peptide)
peptide: GLLPALVAL
B3: IIDDTIFNL (SEQ ID NO: 88) (peptide)
peptide: IIDDTIFNL
B4: KLADIQIEQL (SEQ ID NO: 89) (peptide)
peptide: KLADIQIEQL
B5: KLLTPITTL (SEQ ID NO: 90) (peptide)
peptide: KLLTPITTL
B6: LLFNDVQTL (SEQ ID NO: 91) (peptide)
peptide: LLFNDVQTL
B7: YLTNEGIAHL (SEQ ID NO: 92) (peptide)
peptide: YLTNEGIAHL
B8: SIDSEPALV (SEQ ID NO: 93) (peptide)
peptide: SIDSEPALV
B9: QIIDAINKV (SEQ ID NO: 9) (peptide)
peptide: QIIDAINKV
B10: VMMEEFVQL (SEQ ID NO: 94) (peptide)
peptide: VMMEEFVQL
B11: ALADDDFLTV (SEQ ID NO: 95) (peptide)
peptide: ALADDDFLTV
B12: ALAPATGGGSLLL (SEQ ID NO: 96) (peptide)
peptide: ALAPATGGGSLLL
B13: ALDDMISTL (SEQ ID NO: 97) (peptide)
peptide: ALDDMISTL
B14: ALDQKVRSV (SEQ ID NO: 98) (peptide)
peptide: ALDQKVRSV
B15: ALESFLKQV (SEQ ID NO: 99) (peptide)
peptide: ALESFLKQV
B16: ALFGAGPASI (SEQ ID NO: 100) (peptide)
peptide: ALFGAGPASI
B17: ALVEENGIFEL (SEQ ID NO: 101) (peptide)
peptide: ALVEENGIFEL
B18: ALYPGTDYTV (SEQ ID NO: 102) (peptide)
peptide: ALYPGTDYTV
B19: AVAAVLTQV (SEQ ID NO: 103) (peptide)
peptide: AVAAVLTQV

Molecular target: T1, HLA-A*02:01 (human)
T1 construct: the tested peptide takes its place; also called peptide-receptive MHC molecules; MHC class I
Experiment: UV-ligand exchange, anti-β2m ELISA; grade of peptide exchange yield
Excerpt: Candidate peptides for T cell based therapies according to the present invention were further tested for their MHC binding capacity (affinity). The individual peptide-MHC complexes were produced by UV-ligand exchange, where a UV-sensitive peptide is cleaved upon UV-irradiation, and exchanged with the peptide of interest as analyzed. Only peptide candidates that can effectively bind and stabilize the peptide-receptive MHC molecules prevent dissociation of the MHC complexes. To determine the yield of the exchange reaction, an ELISA was performed based on the detection of the light chain (β2m) of stabilized MHC complexes. The assay was performed as generally described in Rodenko et al. (Rodenko et al., 2006).
96 well MAXISorp plates (NUNC) were coated over night with 2 ug/ml streptavidin in PBS at room temperature, washed 4× and blocked for 1h at 37° C. in 2% BSA containing blocking buffer. Refolded HLA-A*02:01/MLA-001 monomers served as standards, covering the range of 15-500 ng/ml. Peptide-MHC monomers of the UV-exchange reaction were diluted 100 fold in blocking buffer. Samples were incubated for 1 h at 37° C., washed four times, incubated with 2 ug/ml HRP conjugated anti-β2m for 1h at 37° C., washed again and detected with TMB solution that is stopped with […]. Absorption was measured at 450 nm. Candidate peptides that show a high exchange yield (preferably higher than 50%, most preferred higher than 75%) are generally preferred for a generation and production of antibodies or fragments thereof, and/or T cell receptors or fragments thereof, as they show sufficient avidity to the MHC molecules and prevent dissociation of the MHC complexes.

Binder | peptide exchange yield
B1 | ≥ 75%
B2 | 50 to 75%
B3 | 50 to 75%
B4 | 50 to 75%
B5 | 50 to 75%
B6 | 50 to 75%
B7 | ≥ 75%
B8 | 50 to 75%
B9 | 20 to 50%
B10 | 50 to 75%
B11 | 50 to 75%
B12 | 50 to 75%
B13 | 50 to 75%
B14 | 20 to 50%
B15 | 50 to 75%
B16 | 50 to 75%
B17 | 50 to 75%
B18 | 50 to 75%
B19 | 50 to 75%
